# Article PMC7886051, “Redesigning the Molecular Choreography to Prevent Hydroxylation in Germacradien-11-ol Synthase Catalysis” (ACS Catalysis, 2021)
# Substrate: CC(C)=CCC/C(C)=C/CC/C(C)=C/CO[P@@](=O)(O)OP(=O)(O)O
# Assay: steady-state kinetics of purified enzyme (details in supplement)
# Format: biochemical, Streptomyces coelicolor
# Conditions: Mg2+-dependent enzyme; assay conditions in supplement
# Text: steady-state kinetics of purified enzyme (details in supplement) on Gd11olS (germacradien-11-ol synthase; N-terminal domain of geosmin synthase)
Protein,Km,kcat
"Gd11olS (germacradien-11-ol synthase; N-terminal domain of geosmin synthase) (Streptomyces coelicolor A3(2); V187A) (protein, N-terminal domain, residues 1-366 of geosmin synthase; codon-optimized synthetic gene in pET28a, expressed in E. coli, purified to homogeneity; tag details in supplement) MTQQPFQLPHFYLPHPARLNPHLDEARAHSTTWAREMGMLEGSGVWEQSDLEAHDYGLLCAYTHPDCDGPALSLITDWYVWVFFFDDHFLEKYKRSQDRLAGKAHLDRLPLFMPLDDAAGMPEPRNPVEAGLADLWTRTVPAMSADWRRRFAVATEHLLNESMWELSNINEGRVANPVEYIEMRRKAGGAPWSAGLVEYATAEVPAAVAGTRPLRVLMETFSDAVHLRNDLFSYQREVEDEGELSNGVLVLETFFGCTTQEAADLVNDVLTSRLHQFEHTAFTEVPAVALEKGLTPLEVAAVGAYTKGLQDWQSGGHEWHMRSSRYMNKGERPLAGWQALTGPGTSAADVGALLADAVAQRARSYT",0.3 ± 0.06 µM,0.000194 ± 1e-07 s⁻¹
"Gd11olS (germacradien-11-ol synthase; N-terminal domain of geosmin synthase) (Streptomyces coelicolor A3(2); W312A) (protein, N-terminal domain, residues 1-366 of geosmin synthase; codon-optimized synthetic gene in pET28a, expressed in E. coli, purified to homogeneity; tag details in supplement) MTQQPFQLPHFYLPHPARLNPHLDEARAHSTTWAREMGMLEGSGVWEQSDLEAHDYGLLCAYTHPDCDGPALSLITDWYVWVFFFDDHFLEKYKRSQDRLAGKAHLDRLPLFMPLDDAAGMPEPRNPVEAGLADLWTRTVPAMSADWRRRFAVATEHLLNESMWELSNINEGRVANPVEYIEMRRKVGGAPWSAGLVEYATAEVPAAVAGTRPLRVLMETFSDAVHLRNDLFSYQREVEDEGELSNGVLVLETFFGCTTQEAADLVNDVLTSRLHQFEHTAFTEVPAVALEKGLTPLEVAAVGAYTKGLQDAQSGGHEWHMRSSRYMNKGERPLAGWQALTGPGTSAADVGALLADAVAQRARSYT",0.4 ± 0.07 µM,4.02e-05 ± 1e-07 s⁻¹
"Gd11olS (germacradien-11-ol synthase; N-terminal domain of geosmin synthase) (Streptomyces coelicolor A3(2); R228V) (protein, N-terminal domain, residues 1-366 of geosmin synthase; codon-optimized synthetic gene in pET28a, expressed in E. coli, purified to homogeneity; tag details in supplement) MTQQPFQLPHFYLPHPARLNPHLDEARAHSTTWAREMGMLEGSGVWEQSDLEAHDYGLLCAYTHPDCDGPALSLITDWYVWVFFFDDHFLEKYKRSQDRLAGKAHLDRLPLFMPLDDAAGMPEPRNPVEAGLADLWTRTVPAMSADWRRRFAVATEHLLNESMWELSNINEGRVANPVEYIEMRRKVGGAPWSAGLVEYATAEVPAAVAGTRPLRVLMETFSDAVHLVNDLFSYQREVEDEGELSNGVLVLETFFGCTTQEAADLVNDVLTSRLHQFEHTAFTEVPAVALEKGLTPLEVAAVGAYTKGLQDWQSGGHEWHMRSSRYMNKGERPLAGWQALTGPGTSAADVGALLADAVAQRARSYT",0.8 ± 0.10 µM,0.0001814 ± 4e-07 s⁻¹
"Gd11olS (germacradien-11-ol synthase; N-terminal domain of geosmin synthase) (Streptomyces coelicolor A3(2)) (protein, N-terminal domain, residues 1-366 of geosmin synthase; codon-optimized synthetic gene in pET28a, expressed in E. coli, purified to homogeneity; tag details in supplement) MTQQPFQLPHFYLPHPARLNPHLDEARAHSTTWAREMGMLEGSGVWEQSDLEAHDYGLLCAYTHPDCDGPALSLITDWYVWVFFFDDHFLEKYKRSQDRLAGKAHLDRLPLFMPLDDAAGMPEPRNPVEAGLADLWTRTVPAMSADWRRRFAVATEHLLNESMWELSNINEGRVANPVEYIEMRRKVGGAPWSAGLVEYATAEVPAAVAGTRPLRVLMETFSDAVHLRNDLFSYQREVEDEGELSNGVLVLETFFGCTTQEAADLVNDVLTSRLHQFEHTAFTEVPAVALEKGLTPLEVAAVGAYTKGLQDWQSGGHEWHMRSSRYMNKGERPLAGWQALTGPGTSAADVGALLADAVAQRARSYT",0.5 ± 0.08 µM,0.000524 ± 2e-07 s⁻¹
"Gd11olS (germacradien-11-ol synthase; N-terminal domain of geosmin synthase) (Streptomyces coelicolor A3(2); H320F) (protein, N-terminal domain, residues 1-366 of geosmin synthase; codon-optimized synthetic gene in pET28a, expressed in E. coli, purified to homogeneity; tag details in supplement) MTQQPFQLPHFYLPHPARLNPHLDEARAHSTTWAREMGMLEGSGVWEQSDLEAHDYGLLCAYTHPDCDGPALSLITDWYVWVFFFDDHFLEKYKRSQDRLAGKAHLDRLPLFMPLDDAAGMPEPRNPVEAGLADLWTRTVPAMSADWRRRFAVATEHLLNESMWELSNINEGRVANPVEYIEMRRKVGGAPWSAGLVEYATAEVPAAVAGTRPLRVLMETFSDAVHLRNDLFSYQREVEDEGELSNGVLVLETFFGCTTQEAADLVNDVLTSRLHQFEHTAFTEVPAVALEKGLTPLEVAAVGAYTKGLQDWQSGGHEWFMRSSRYMNKGERPLAGWQALTGPGTSAADVGALLADAVAQRARSYT",1.8 ± 0.5 µM,2.3e-05 ± 2e-07 s⁻¹
"Gd11olS (germacradien-11-ol synthase; N-terminal domain of geosmin synthase) (Streptomyces coelicolor A3(2); H320A) (protein, N-terminal domain, residues 1-366 of geosmin synthase; codon-optimized synthetic gene in pET28a, expressed in E. coli, purified to homogeneity; tag details in supplement) MTQQPFQLPHFYLPHPARLNPHLDEARAHSTTWAREMGMLEGSGVWEQSDLEAHDYGLLCAYTHPDCDGPALSLITDWYVWVFFFDDHFLEKYKRSQDRLAGKAHLDRLPLFMPLDDAAGMPEPRNPVEAGLADLWTRTVPAMSADWRRRFAVATEHLLNESMWELSNINEGRVANPVEYIEMRRKVGGAPWSAGLVEYATAEVPAAVAGTRPLRVLMETFSDAVHLRNDLFSYQREVEDEGELSNGVLVLETFFGCTTQEAADLVNDVLTSRLHQFEHTAFTEVPAVALEKGLTPLEVAAVGAYTKGLQDWQSGGHEWAMRSSRYMNKGERPLAGWQALTGPGTSAADVGALLADAVAQRARSYT",1.12 ± 0.10 µM,3.8e-05 ± 1e-07 s⁻¹
"Gd11olS (germacradien-11-ol synthase; N-terminal domain of geosmin synthase) (Streptomyces coelicolor A3(2); G188S) (protein, N-terminal domain, residues 1-366 of geosmin synthase; codon-optimized synthetic gene in pET28a, expressed in E. coli, purified to homogeneity; tag details in supplement) MTQQPFQLPHFYLPHPARLNPHLDEARAHSTTWAREMGMLEGSGVWEQSDLEAHDYGLLCAYTHPDCDGPALSLITDWYVWVFFFDDHFLEKYKRSQDRLAGKAHLDRLPLFMPLDDAAGMPEPRNPVEAGLADLWTRTVPAMSADWRRRFAVATEHLLNESMWELSNINEGRVANPVEYIEMRRKVSGAPWSAGLVEYATAEVPAAVAGTRPLRVLMETFSDAVHLRNDLFSYQREVEDEGELSNGVLVLETFFGCTTQEAADLVNDVLTSRLHQFEHTAFTEVPAVALEKGLTPLEVAAVGAYTKGLQDWQSGGHEWHMRSSRYMNKGERPLAGWQALTGPGTSAADVGALLADAVAQRARSYT",5.7 ± 0.9 µM,4.08e-05 ± 2e-06 s⁻¹
"Gd11olS (germacradien-11-ol synthase; N-terminal domain of geosmin synthase) (Streptomyces coelicolor A3(2); W312F) (protein, N-terminal domain, residues 1-366 of geosmin synthase; codon-optimized synthetic gene in pET28a, expressed in E. coli, purified to homogeneity; tag details in supplement) MTQQPFQLPHFYLPHPARLNPHLDEARAHSTTWAREMGMLEGSGVWEQSDLEAHDYGLLCAYTHPDCDGPALSLITDWYVWVFFFDDHFLEKYKRSQDRLAGKAHLDRLPLFMPLDDAAGMPEPRNPVEAGLADLWTRTVPAMSADWRRRFAVATEHLLNESMWELSNINEGRVANPVEYIEMRRKVGGAPWSAGLVEYATAEVPAAVAGTRPLRVLMETFSDAVHLRNDLFSYQREVEDEGELSNGVLVLETFFGCTTQEAADLVNDVLTSRLHQFEHTAFTEVPAVALEKGLTPLEVAAVGAYTKGLQDFQSGGHEWHMRSSRYMNKGERPLAGWQALTGPGTSAADVGALLADAVAQRARSYT",0.9 ± 0.09 µM,0.000255 ± 6e-07 s⁻¹
"Gd11olS (germacradien-11-ol synthase; N-terminal domain of geosmin synthase) (Streptomyces coelicolor A3(2); G188A) (protein, N-terminal domain, residues 1-366 of geosmin synthase; codon-optimized synthetic gene in pET28a, expressed in E. coli, purified to homogeneity; tag details in supplement) MTQQPFQLPHFYLPHPARLNPHLDEARAHSTTWAREMGMLEGSGVWEQSDLEAHDYGLLCAYTHPDCDGPALSLITDWYVWVFFFDDHFLEKYKRSQDRLAGKAHLDRLPLFMPLDDAAGMPEPRNPVEAGLADLWTRTVPAMSADWRRRFAVATEHLLNESMWELSNINEGRVANPVEYIEMRRKVAGAPWSAGLVEYATAEVPAAVAGTRPLRVLMETFSDAVHLRNDLFSYQREVEDEGELSNGVLVLETFFGCTTQEAADLVNDVLTSRLHQFEHTAFTEVPAVALEKGLTPLEVAAVGAYTKGLQDWQSGGHEWHMRSSRYMNKGERPLAGWQALTGPGTSAADVGALLADAVAQRARSYT",3.8 ± 1.5 µM,3.7e-05 ± 5e-06 s⁻¹
"Gd11olS (germacradien-11-ol synthase; N-terminal domain of geosmin synthase) (Streptomyces coelicolor A3(2); Q313N) (protein, N-terminal domain, residues 1-366 of geosmin synthase; codon-optimized synthetic gene in pET28a, expressed in E. coli, purified to homogeneity; tag details in supplement) MTQQPFQLPHFYLPHPARLNPHLDEARAHSTTWAREMGMLEGSGVWEQSDLEAHDYGLLCAYTHPDCDGPALSLITDWYVWVFFFDDHFLEKYKRSQDRLAGKAHLDRLPLFMPLDDAAGMPEPRNPVEAGLADLWTRTVPAMSADWRRRFAVATEHLLNESMWELSNINEGRVANPVEYIEMRRKVGGAPWSAGLVEYATAEVPAAVAGTRPLRVLMETFSDAVHLRNDLFSYQREVEDEGELSNGVLVLETFFGCTTQEAADLVNDVLTSRLHQFEHTAFTEVPAVALEKGLTPLEVAAVGAYTKGLQDWNSGGHEWHMRSSRYMNKGERPLAGWQALTGPGTSAADVGALLADAVAQRARSYT",0.5 ± 0.07 µM,5.02e-05 ± 1e-07 s⁻¹
"Gd11olS (germacradien-11-ol synthase; N-terminal domain of geosmin synthase) (Streptomyces coelicolor A3(2); Q313A) (protein, N-terminal domain, residues 1-366 of geosmin synthase; codon-optimized synthetic gene in pET28a, expressed in E. coli, purified to homogeneity; tag details in supplement) MTQQPFQLPHFYLPHPARLNPHLDEARAHSTTWAREMGMLEGSGVWEQSDLEAHDYGLLCAYTHPDCDGPALSLITDWYVWVFFFDDHFLEKYKRSQDRLAGKAHLDRLPLFMPLDDAAGMPEPRNPVEAGLADLWTRTVPAMSADWRRRFAVATEHLLNESMWELSNINEGRVANPVEYIEMRRKVGGAPWSAGLVEYATAEVPAAVAGTRPLRVLMETFSDAVHLRNDLFSYQREVEDEGELSNGVLVLETFFGCTTQEAADLVNDVLTSRLHQFEHTAFTEVPAVALEKGLTPLEVAAVGAYTKGLQDWASGGHEWHMRSSRYMNKGERPLAGWQALTGPGTSAADVGALLADAVAQRARSYT",1.10 ± 0.14 µM,6.9e-05 ± 2e-07 s⁻¹
